Source: US20130280259A1, “USE OF ANTIBODIES AGAINST NK1, NK2 AND/OR NK3 RECEPTORS IN CANCER TREATMENT” (SERVICIO ANDALUZ DE SALUD, priority 2010, published 2013)
Positions of bridges follow the written chain, without caps; N, C: chain ends. Non-standard residues stand in square brackets, D forms with d. Residues, ends and D or L forms follow the SMILES beside them. *: point of attachment. NH(β-GlcNAc) = CC(=O)N[C@@H]1[C@@H](O)[C@H](O)[C@@H](CO)O[C@H]1N*; Dap = NC[C@H](N)C(=O)O

Assays:
[1] = target: NK3 receptor (human) (UniProt P29371); experiment: cell-based or functional assay
Chain of UniProt P29371 (P29371 whole entry): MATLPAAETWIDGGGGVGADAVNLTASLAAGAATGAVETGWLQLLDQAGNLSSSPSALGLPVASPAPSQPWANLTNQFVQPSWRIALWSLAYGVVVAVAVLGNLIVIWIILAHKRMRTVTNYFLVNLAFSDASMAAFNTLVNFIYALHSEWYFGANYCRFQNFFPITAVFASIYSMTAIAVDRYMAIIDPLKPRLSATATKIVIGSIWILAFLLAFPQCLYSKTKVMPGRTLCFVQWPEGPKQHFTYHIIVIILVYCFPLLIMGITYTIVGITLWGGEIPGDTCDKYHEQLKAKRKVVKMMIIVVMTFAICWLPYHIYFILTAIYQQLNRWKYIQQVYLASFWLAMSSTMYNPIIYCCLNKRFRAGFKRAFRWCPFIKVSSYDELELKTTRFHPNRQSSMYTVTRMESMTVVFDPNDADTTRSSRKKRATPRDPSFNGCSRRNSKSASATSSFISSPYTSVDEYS

[2] = system: human breast cancer cells; conditions: Singh D et al., 2000; Bigioni M. et al., 2005; cited from earlier work
[3] = target: NK1 receptor (human) (UniProt P25103); experiment: cell-based or functional assay
Chain of UniProt P25103 (P25103 whole entry): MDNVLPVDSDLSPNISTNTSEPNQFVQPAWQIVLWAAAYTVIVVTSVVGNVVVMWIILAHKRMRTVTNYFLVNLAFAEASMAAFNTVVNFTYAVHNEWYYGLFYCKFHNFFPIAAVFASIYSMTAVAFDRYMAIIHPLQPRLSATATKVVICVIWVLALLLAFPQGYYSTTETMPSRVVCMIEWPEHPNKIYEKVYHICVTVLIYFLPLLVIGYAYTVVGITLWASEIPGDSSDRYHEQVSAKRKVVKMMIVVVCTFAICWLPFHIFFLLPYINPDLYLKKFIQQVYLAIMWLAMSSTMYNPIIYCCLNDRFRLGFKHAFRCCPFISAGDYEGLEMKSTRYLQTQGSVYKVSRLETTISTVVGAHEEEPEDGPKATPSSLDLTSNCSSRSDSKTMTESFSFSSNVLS

[4] = target: NK1, NK2 and NK3 receptors; experiment: cell-based or functional assay

In the case of “anti-NK3 antibody (Sigma-Aldrich, product number HPA009418)”, the % of fibroblast cells with expression for MMP-3; anti-NK3 (1/100) and Substance P (1 µM) [1] is reported as 0%, the % of fibroblast cells with expression for MMP-7; anti-NK3 (1/100) and Substance P (1 µM) [1] is reported as 0% and the % of fibroblast cells with expression for MMP-9; anti-NK3 (1/100) and Substance P (1 µM) [1] is reported as 0%. It also gave a % of fibroblast cells with expression for MMP-11; anti-NK3 (1/100) and Substance P (1 µM) [1] of 0%, a % of fibroblast cells with expression for MMP-13; anti-NK3 (1/100) and Substance P (1 µM) [1] of 0% and a % of fibroblast cells with expression for MMP-14; anti-NK3 (1/100) and Substance P (1 µM) [1] of 0%. For the same molecule, the % of fibroblast cells with expression for SPARC; anti-NK3 (1/100) and Substance P (1 µM) [1] was 0%, the % of fibroblast cells with expression for TGF-alpha; anti-NK3 (1/100) and Substance P (1 µM) [1] was 0% and the % of fibroblast cells with expression for TGF-beta 1; anti-NK3 (1/100) and Substance P (1 µM) [1] was 0%. The % of fibroblast cells with expression for TGF-beta 2; anti-NK3 (1/100) and Substance P (1 µM) [1] was 0%, the % of fibroblast cells with expression for TGF-beta 3; anti-NK3 (1/100) and Substance P (1 µM) [1] was 0% and the % of mononuclear cells with expression for NF-kB; anti-NK3 (1/100) and Substance P (1 µM) [1] was 0%. It also gave a % of mononuclear cells with expression for TGF-beta; anti-NK3 (1/100) and Substance P (1 µM) [1] of 0%, a % of polymorphonuclear cells with expression for NF-kB; anti-NK3 (1/100) [1] of 0% and a % of polymorphonuclear cells with expression for TGF-beta; anti-NK3 (1/100) [1] of 0%.

For `CC(=O)N[C@@H]1[C@@H](O)[C@H](O)[C@@H](CO)O[C@H]1NC(=O)C[C@@H]1NC(=O)[C@H](CC(C)C)NC(=O)[C@@H]2CNC(=O)C[C@H](NC1=O)C(=O)N[C@@H](Cc1c[nH]c3ccccc13)C(=O)N[C@@H](Cc1ccccc1)C(=O)N2` [MEN 11420, nepadutant] (cyclo(D(NH(β-GlcNAc))DWF[Dap]L); lactam 2-5), the Blocking cell proliferation [2] is given as “efficacy in blocking cell proliferation”.

With “anti-NK1 antibody (Sigma-Aldrich, product number S8305)” the % of fibroblast cells with expression for MMP-3; anti-NK1 (1/100) and Substance P (1 µM) [3] was 0%, the % of fibroblast cells with expression for MMP-7; anti-NK1 (1/100) and Substance P (1 µM) [3] was 0% and the % of fibroblast cells with expression for MMP-9; anti-NK1 (1/100) and Substance P (1 µM) [3] was 0%. For the same molecule, the % of fibroblast cells with expression for MMP-11; anti-NK1 (1/100) and Substance P (1 µM) [3] was 0%, the % of fibroblast cells with expression for MMP-13; anti-NK1 (1/100) and Substance P (1 µM) [3] was 0% and the % of fibroblast cells with expression for MMP-14; anti-NK1 (1/100) and Substance P (1 µM) [3] was 0%. It also gave a % of fibroblast cells with expression for SPARC; anti-NK1 (1/100) and Substance P (1 µM) [3] of 0%, a % of fibroblast cells with expression for TGF-alpha; anti-NK1 (1/100) and Substance P (1 µM) [3] of 0% and a % of fibroblast cells with expression for TGF-beta 1; anti-NK1 (1/100) and Substance P (1 µM) [3] of 0%. It also gave a % of fibroblast cells with expression for TGF-beta 2; anti-NK1 (1/100) and Substance P (1 µM) [3] of 0%, a % of fibroblast cells with expression for TGF-beta 3; anti-NK1 (1/100) and Substance P (1 µM) [3] of 0% and a % of mononuclear cells with expression for NF-kB; anti-NK1 (1/100) and Substance P (1 µM) [3] of 0%. The % of mononuclear cells with expression for TGF-beta; anti-NK1 (1/100) and Substance P (1 µM) [3] was 0%, the % of polymorphonuclear cells with expression for NF-kB; anti-NK1 (1/100) [3] was 0% and the % of polymorphonuclear cells with expression for TGF-beta; anti-NK1 (1/100) [3] was 0%.

With RPKPQQFFGLM (peptide, UniProt P20366 58-68, looked up) [Substance P (product no. S6883; Sigma-Aldrich)] the % of fibroblast cells with expression for MMP-3; Substance P (1 µM) [4] was 33.9%, the % of fibroblast cells with expression for MMP-7; Substance P (1 µM) [4] was 46.2% and the % of fibroblast cells with expression for MMP-9; Substance P (1 µM) [4] was 35.5%. It also gave a % of fibroblast cells with expression for MMP-11; Substance P (1 µM) [4] of 7.8%, a % of fibroblast cells with expression for MMP-13; Substance P (1 µM) [4] of 17.1% and a % of fibroblast cells with expression for MMP-14; Substance P (1 µM) [4] of 47.3%. It also gave a % of fibroblast cells with expression for SPARC; Substance P (1 µM) [4] of 16%, a % of fibroblast cells with expression for TGF-alpha; Substance P (1 µM) [4] of 16.5% and a % of fibroblast cells with expression for TGF-beta 1; Substance P (1 µM) [4] of 18.4%. It also gave a % of fibroblast cells with expression for TGF-beta 2; Substance P (1 µM) [4] of 24.6%, a % of fibroblast cells with expression for TGF-beta 3; Substance P (1 µM) [4] of 23.1% and a % of mononuclear cells with expression for NF-kB; Substance P (1 µM) [4] of 25.7%. The % of mononuclear cells with expression for TGF-beta; Substance P (1 µM) [4] was 16.4%, the % of polymorphonuclear cells with expression for NF-kB; Substance P (1 µM) [4] was 17.5% and the % of polymorphonuclear cells with expression for TGF-beta; Substance P (1 µM) [4] was 36.8%.
